The labels stand for the following.
B1: human BLVRB (biliverdin reductase B) (Homo sapiens; S111A) (protein)
chain: MAVKKIAIFGATGQTGLTTLAQAVQAGYEVTVLVRDSSRLPSEGPRPAHVVVGDVLQAADVDKTVAGQDAVIVLLGTRNDLSPTTVMSEGARNIVAAMKAHGVDKVVACTAAFLLWDPTKVPPRLQAVTDDHIRMHKVLRESGLKYVAVMPPHIGDQPLTGAYTVTLDGRGPSRVISKHDLGHFMLRCLTTDEYDGHSTYPSHQYQ
notes: full length, 206 residues; codon-optimised, pET21b (T164S in pJ401k); N-terminal 6xHis tag removed with thrombin
B2: human BLVRB (biliverdin reductase B) (Homo sapiens; H153A) (protein)
chain: B1 chain with A111S, H153A
notes: as for B1
B3: human BLVRB (biliverdin reductase B) (Homo sapiens; T164I) (protein)
chain: B1 chain with A111S, T164I
notes: as for B1
B4: human BLVRB (biliverdin reductase B) (Homo sapiens; T164A) (protein)
chain: B1 chain with A111S, T164A
notes: as for B1
B5: human BLVRB (biliverdin reductase B) (Homo sapiens; T164S) (protein)
chain: B1 chain with A111S, T164S
notes: as for B1

The values below come from publication PMC8173106, “Modulating Enzyme Function via Dynamic Allostery within Biliverdin Reductase B” (Frontiers in Molecular Biosciences, 2021).

Changes are numbered by the printed parent chain. Names may count otherwise.

Substrate in this data set: Cc1cc2nc3c(=O)[nH]c(=O)nc-3n(C[C@H](O)[C@H](O)[C@H](O)COP(=O)(O)OP(=O)(O)OC[C@H]3O[C@@H](n4cnc5c(N)ncnc54)[C@H](O)[C@@H]3O)c2cc1C
Kind of data set: purified protein. Type of data set: biochemical, Homo sapiens. To be noted: co-substrate NADPH.
One may read the Km as the substrate concentration at which the rate is half of its maximum. What is called kcat is the maximal rate divided by the concentration of active sites. In the case of B1, the Km was found to be 325 ± 96 µM and the kcat was 0.021 ± 0.004 s⁻¹.
The like results for B2 were, in that order, 98 ± 11 µM and 0.059 ± 0.003 s⁻¹.
The like results for B3 were, in that order, 156 ± 18 µM and 0.049 ± 0.003 s⁻¹.
With B4, the Km was 153 ± 18 µM and the kcat came to 0.063 ± 0.002 s⁻¹.
The like results for B5 were, in that order, 127 ± 15 µM and 0.039 ± 0.003 s⁻¹.
